This test deals with T1, recombinant native hFSH receptor (human, UniProt P23945 18-695).
T1 construct: whole, on cells
T1 sequence (looked up): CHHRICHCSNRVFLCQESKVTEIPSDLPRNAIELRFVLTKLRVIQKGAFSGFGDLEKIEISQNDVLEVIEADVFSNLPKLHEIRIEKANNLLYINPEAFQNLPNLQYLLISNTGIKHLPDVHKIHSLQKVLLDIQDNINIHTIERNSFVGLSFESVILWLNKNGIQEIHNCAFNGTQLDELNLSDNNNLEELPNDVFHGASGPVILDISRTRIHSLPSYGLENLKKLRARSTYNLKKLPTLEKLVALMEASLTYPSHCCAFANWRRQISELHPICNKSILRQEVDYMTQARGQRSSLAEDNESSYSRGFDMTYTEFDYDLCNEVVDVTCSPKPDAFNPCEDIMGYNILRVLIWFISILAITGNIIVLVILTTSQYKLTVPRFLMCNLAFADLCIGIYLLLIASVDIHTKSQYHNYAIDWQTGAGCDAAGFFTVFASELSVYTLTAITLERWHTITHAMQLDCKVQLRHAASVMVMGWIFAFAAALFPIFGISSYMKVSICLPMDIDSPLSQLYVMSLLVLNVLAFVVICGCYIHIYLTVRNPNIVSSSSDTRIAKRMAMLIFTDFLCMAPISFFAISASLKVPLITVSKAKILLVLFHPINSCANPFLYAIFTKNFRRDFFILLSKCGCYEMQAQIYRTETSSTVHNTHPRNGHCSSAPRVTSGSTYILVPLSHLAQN
The test is described as follows: conclusion drawn from the cAMP bioassay on Y-1 cells expressing the FSH receptor; no direct binding assay described. The procedure: Bioactivity of the hFSH analogues was evaluated using Y-1 cells transfected with the FSH receptor. Y-1 cell cultures were mixed with the fusion protein and native pituitary hFSH (control) at varying concentrations and media was assayed for cAMP activity as described in Bouloux et al, 2001.
Figure 8: FIG. 8: In vitro bioassay of hormone activity. cAMP concentration (fmol/ml) was quantitated in Y1 cells expressing the FSH receptor after treatment with the indicated amount of either pituitary FSH (PFSH) or the FSH analogue, β-hFSH-CTP-α-hFSH (rFSH-CTP).
The bioactivity of the β-hFSH-CTP-α analogue was first assessed by an assay of hFSH receptor activity. In this assay, a recombinant native hFSH receptor is expressed in a suitable host cell and cAMP induction is measured following incubation with hormone (Lindau-Shepard et al, 2001).

B1: β-hFSH-CTP-α-hFSH (ligand)
chain: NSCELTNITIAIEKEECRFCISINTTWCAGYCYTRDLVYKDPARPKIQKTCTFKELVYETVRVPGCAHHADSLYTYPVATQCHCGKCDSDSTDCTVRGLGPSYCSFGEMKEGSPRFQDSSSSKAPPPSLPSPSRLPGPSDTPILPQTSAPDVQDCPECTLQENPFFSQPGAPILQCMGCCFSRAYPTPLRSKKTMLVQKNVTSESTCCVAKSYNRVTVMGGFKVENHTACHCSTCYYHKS
notes: Secreted from CHO-K1 cells and purified on an A201 column; also called β-hFSH-CTP-α analogue; β-hFSH-CTP-α fusion protein
In the case of B1, the binding result was “binds”.
